Source: paper PMC12436196

Biological target: NPM1 (UniProt P06748)
Assay: Co-IP of Flag-MST4 with HA-NPM1
Conditions: reference: Flag-MST4 wild type; sites T178

binding against the reference: weaker
Substance: MST4 (from UniProt Q9P289) Flag-MST4 T178A
